Consider one protein from patent US9090549B2, “1,4-naphthoquinones derivatives and therapeutic use thereof” (CENTRE NATIONAL DE LA RECHERCHE SCIENTIFIQUE (C.N.R.S.), priority 2008, dated 2015).

Substrate in this data set: CC1=C(C(=O)c2ccc(Br)cc2)C(=O)C2C=CC=CC2C1=O
Description: 1,4-Naphthoquinone reductase activity of P. falciparum glutathione reductase. Type of data set: biochemical, Plasmodium falciparum. The note with it: other: pH 6.9, 100 μM NADPH, 1% DMSO.
Description: The reduction assay mixture consisted of 100 mM potassium phosphate buffer pH 6.9, 200 mM KCl, 1 mM EDTA and 100 μM NADPH in a total volume of 1 mL. 1,4-naphthoquinone reductase activity was determined by recording the initial velocities in the presence of increasing naphthoquinone concentrations (0-300 μM). The 1,4-naphthoquinone was first dissolved in DMSO, and a final 1% DMSO concentration was kept constant in the 1,4-naphthoquinone reductase assay. For the determination of KM and Vmax values, the steady-state rates were fitted by using nonlinear regression analysis software (Kaleidagraph) to the Michaelis-Menten equation. From these values, the turnover number kcat and the catalytic efficiency kcat/KM were calculated.

B1: P. falciparum glutathione reductase (PfGR) (Plasmodium falciparum K1) (protein)
chain: VYDLIVIGGGSGGMAAARRAARHNAKVALVEKSRLGGTCVNVGCVPKKIMFNAASVHDILENSRHYGFDTKFSFNLPLLVERRDKYIQRLNNIYRQNLSKDKVDLYEGTASFLSENRILIKGTKDNNNKDNGPLNEEILEGRNILIAVGNKPVFPPVKGIENTISSDEFFNIKESKKIGIVGSGYIAVELINVIKRLGIDSYIFARGNRILRKFDESVINVLENDMKKNNINIVTFADVVEIKKVSDKNLSIHLSDGRIYEHFDHVIYCVGRSPDTENLKLEKLNVETNNNYIVVDENQRTSVNNIYAVGDCCMVKKSKEIEDLNLLKLYNEERYLNKKENVTEDIFYNVQLTPVAINAGRLLADRLFLKKTRKTNYKLIPTVIFSHPPIGTIGLSEEAAIQIYGKENVKIYESKFTNLFFSVYDIEPELKEKTYLKLVCVGKDELIKGLHIIGLNADEIVQGFAVALKMNATKKDFDETIPIHPTAAEEFLTLQPWMK
As for B1, the Michaelis constant (Km) amounted to 6.1 µM.
